The source of these data is US20140087995A1 (published 2014).

Numbered stars: 1 amine (or outer) side, 2 acyl side, 3 side chain; on linkers, the order of the positions; unused ones are H or OH. Bridge positions count the residues as written; N and C are the ends. Side chains are listed from the residue outwards. Ends that are not written are not given here. * marks the point of attachment. C20 diacid = O=C(O)CCCCCCCCCCCCCCCCCCC(=O)*; γGlu = O=C(O)[C@H](CCC(=O)[*:2])N[*:1]

Assay [1] deals with T1, human calcitonin receptor (human, UniProt P30988 25-474).
T1 sequence (looked up): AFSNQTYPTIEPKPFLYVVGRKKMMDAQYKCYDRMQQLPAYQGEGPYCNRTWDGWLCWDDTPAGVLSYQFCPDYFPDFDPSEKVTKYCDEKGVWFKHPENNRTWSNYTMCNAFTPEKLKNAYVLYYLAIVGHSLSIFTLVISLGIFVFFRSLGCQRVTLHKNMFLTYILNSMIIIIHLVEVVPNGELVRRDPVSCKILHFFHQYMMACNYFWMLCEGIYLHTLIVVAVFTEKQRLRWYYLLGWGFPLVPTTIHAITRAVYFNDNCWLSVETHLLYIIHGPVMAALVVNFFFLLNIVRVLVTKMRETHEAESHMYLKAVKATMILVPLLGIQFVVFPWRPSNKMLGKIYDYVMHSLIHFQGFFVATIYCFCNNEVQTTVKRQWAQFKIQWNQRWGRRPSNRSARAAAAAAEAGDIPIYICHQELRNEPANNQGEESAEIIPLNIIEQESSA
The experiment in a line: cell-based or functional assay.

Assay [2] concerns the target T2, human amylin receptor (amylin 3(a) receptor: human calcitonin receptor with RAMP-3) (human, UniProt P30988 25-474; O60896 24-148, limits assumed).
T2 construct: whole, on cells; Whole cells in the luciferase assay (Assay II a); also called hAmylin-R; hAmylinR
T2 sequence (looked up) 1: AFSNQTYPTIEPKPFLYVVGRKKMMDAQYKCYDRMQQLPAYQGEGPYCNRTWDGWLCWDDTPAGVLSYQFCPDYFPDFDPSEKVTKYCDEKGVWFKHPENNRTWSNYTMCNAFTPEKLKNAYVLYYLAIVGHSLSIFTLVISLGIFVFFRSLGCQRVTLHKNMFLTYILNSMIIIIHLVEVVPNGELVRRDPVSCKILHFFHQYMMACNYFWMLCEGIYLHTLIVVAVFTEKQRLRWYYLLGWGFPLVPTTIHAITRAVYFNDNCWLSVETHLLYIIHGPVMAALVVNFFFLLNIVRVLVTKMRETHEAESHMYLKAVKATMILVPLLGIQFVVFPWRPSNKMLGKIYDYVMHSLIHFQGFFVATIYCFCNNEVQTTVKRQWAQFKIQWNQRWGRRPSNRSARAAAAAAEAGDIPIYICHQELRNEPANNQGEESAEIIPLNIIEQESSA
T2 sequence (looked up) 2: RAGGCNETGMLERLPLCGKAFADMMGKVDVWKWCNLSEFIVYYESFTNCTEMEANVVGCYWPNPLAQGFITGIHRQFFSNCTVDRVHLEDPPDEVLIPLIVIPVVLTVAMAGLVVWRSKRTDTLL
Kind of assay: SPA competition binding on membranes of BHK cells with human calcitonin receptor + RAMP-3; displacement of 125I-rat amylin (Assay V). In short, it runs like this: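 SPA beads + BHK amylin 3(a)/CRE-luc membranes, 35 ng/μL final; buffer 50 mM Hepes pH 7.4, 1 mM CaCl2, 5 mM MgCl₂, 0.1% OA, 0.02% Tween20. 120 min, 25° C, shaken; scintillation count. IC₅₀ by one-site binding competition fit, taken as receptor affinity.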
Background: Displacement assays read how much labelled ligand stays bound in the presence of the test substance.

B1: N^ε1-[(4S)-4-carboxy-4-(19-carboxynonadecanoylamino)butanoyl]-[Asp14,Arg17,Pro21,Pro27,Pro34,Glu35]-h-amylin (peptide)
peptide: K([γGlu-C20 diacid])CNTATCATQRLADFLRHSSPNFGAIPSSTNVGPETY-NH2
modifications: disulfide 2-7; N-terminus assumed
SMILES: CC[C@H](C)[C@H](NC(=O)[C@H](C)NC(=O)CNC(=O)[C@H](Cc1ccccc1)NC(=O)[C@H](CC(N)=O)NC(=O)[C@@H]1CCCN1C(=O)[C@H](CO)NC(=O)[C@H](CO)NC(=O)[C@H](Cc1c[nH]cn1)NC(=O)[C@H](CCCNC(=N)N)NC(=O)[C@H](CC(C)C)NC(=O)[C@H](Cc1ccccc1)NC(=O)[C@H](CC(=O)O)NC(=O)[C@H](C)NC(=O)[C@H](CC(C)C)NC(=O)[C@H](CCCNC(=N)N)NC(=O)[C@H](CCC(N)=O)NC(=O)[C@@H](NC(=O)[C@H](C)NC(=O)[C@@H]1CSSC[C@H](NC(=O)[C@@H](N)CCCCNC(=O)CC[C@H](NC(=O)CCCCCCCCCCCCCCCCCCC(=O)O)C(=O)O)C(=O)N[C@@H](CC(N)=O)C(=O)N[C@@H]([C@@H](C)O)C(=O)N[C@@H](C)C(=O)N[C@@H]([C@@H](C)O)C(=O)N1)[C@@H](C)O)C(=O)N1CCC[C@H]1C(=O)N[C@@H](CO)C(=O)N[C@@H](CO)C(=O)N[C@H](C(=O)N[C@@H](CC(N)=O)C(=O)N[C@H](C(=O)NCC(=O)N1CCC[C@H]1C(=O)N[C@@H](CCC(=O)O)C(=O)N[C@H](C(=O)N[C@@H](Cc1ccc(O)cc1)C(N)=O)[C@@H](C)O)C(C)C)[C@@H](C)O
Take B1: in assay [1], the “Ratio hCT/hAmylin funct.” value was determined as 3.9 ratio and the “hCTR funct. EC50 (pM)” value is 1120 pM. Further, the 50% inhibitory concentration (IC50) in assay [2] turned out to be 0.196 nM.

B2: N^ε1-[(4S)-4-carboxy-4-(19-carboxynonadecanoylamino)butanoyl]-[His14,Arg17,Pro21,Pro27,Pro34,Pro37]-h-amylin (peptide)
peptide: K([γGlu-C20 diacid])CNTATCATQRLAHFLRHSSPNFGAIPSSTNVGPNTP-NH2
modifications: disulfide 2-7; N-terminus assumed
SMILES: CC[C@H](C)[C@H](NC(=O)[C@H](C)NC(=O)CNC(=O)[C@H](Cc1ccccc1)NC(=O)[C@H](CC(N)=O)NC(=O)[C@@H]1CCCN1C(=O)[C@H](CO)NC(=O)[C@H](CO)NC(=O)[C@H](Cc1c[nH]cn1)NC(=O)[C@H](CCCNC(=N)N)NC(=O)[C@H](CC(C)C)NC(=O)[C@H](Cc1ccccc1)NC(=O)[C@H](Cc1c[nH]cn1)NC(=O)[C@H](C)NC(=O)[C@H](CC(C)C)NC(=O)[C@H](CCCNC(=N)N)NC(=O)[C@H](CCC(N)=O)NC(=O)[C@@H](NC(=O)[C@H](C)NC(=O)[C@@H]1CSSC[C@H](NC(=O)[C@@H](N)CCCCNC(=O)CC[C@H](NC(=O)CCCCCCCCCCCCCCCCCCC(=O)O)C(=O)O)C(=O)N[C@@H](CC(N)=O)C(=O)N[C@@H]([C@@H](C)O)C(=O)N[C@@H](C)C(=O)N[C@@H]([C@@H](C)O)C(=O)N1)[C@@H](C)O)C(=O)N1CCC[C@H]1C(=O)N[C@@H](CO)C(=O)N[C@@H](CO)C(=O)N[C@H](C(=O)N[C@@H](CC(N)=O)C(=O)N[C@H](C(=O)NCC(=O)N1CCC[C@H]1C(=O)N[C@@H](CC(N)=O)C(=O)N[C@H](C(=O)N1CCC[C@H]1C(N)=O)[C@@H](C)O)C(C)C)[C@@H](C)O
In the case of B2, the “Ratio hCT/hAmylin funct.” value in assay [1] amounted to 0.8 ratio. Moreover, the half-maximal inhibitory concentration (IC50) in assay [2] was determined as 0.131 nM.

B3: N^ε1-[(4S)-4-carboxy-4-(19-carboxynonadecanoylamino)butanoyl]-[His14,Arg17,Pro21,Pro27,Pro31,Pro34]-h-amylin (peptide)
peptide: K([γGlu-C20 diacid])CNTATCATQRLAHFLRHSSPNFGAIPSSTPVGPNTY-NH2
modifications: disulfide 2-7; N-terminus assumed
SMILES: CC[C@H](C)[C@H](NC(=O)[C@H](C)NC(=O)CNC(=O)[C@H](Cc1ccccc1)NC(=O)[C@H](CC(N)=O)NC(=O)[C@@H]1CCCN1C(=O)[C@H](CO)NC(=O)[C@H](CO)NC(=O)[C@H](Cc1c[nH]cn1)NC(=O)[C@H](CCCNC(=N)N)NC(=O)[C@H](CC(C)C)NC(=O)[C@H](Cc1ccccc1)NC(=O)[C@H](Cc1c[nH]cn1)NC(=O)[C@H](C)NC(=O)[C@H](CC(C)C)NC(=O)[C@H](CCCNC(=N)N)NC(=O)[C@H](CCC(N)=O)NC(=O)[C@@H](NC(=O)[C@H](C)NC(=O)[C@@H]1CSSC[C@H](NC(=O)[C@@H](N)CCCCNC(=O)CC[C@H](NC(=O)CCCCCCCCCCCCCCCCCCC(=O)O)C(=O)O)C(=O)N[C@@H](CC(N)=O)C(=O)N[C@@H]([C@@H](C)O)C(=O)N[C@@H](C)C(=O)N[C@@H]([C@@H](C)O)C(=O)N1)[C@@H](C)O)C(=O)N1CCC[C@H]1C(=O)N[C@@H](CO)C(=O)N[C@@H](CO)C(=O)N[C@H](C(=O)N1CCC[C@H]1C(=O)N[C@H](C(=O)NCC(=O)N1CCC[C@H]1C(=O)N[C@@H](CC(N)=O)C(=O)N[C@H](C(=O)N[C@@H](Cc1ccc(O)cc1)C(N)=O)[C@@H](C)O)C(C)C)[C@@H](C)O
On to B3, for which, in assay [1], the “Ratio hCT/hAmylin funct.” value was 4.9 ratio. For the same molecule, the half-maximal inhibitory concentration (IC50) in assay [2] was determined as 0.082 nM.

B4: N^ε1-[(4S)-4-carboxy-4-[[(4S)-4-carboxy-4-(19-carboxynonadecanoylamino)butanoyl]amino]butanoyl]-[Glu14,Arg17,Pro21,Pro27,Pro34,Glu35,Pro37]-h-amylin (peptide)
peptide: K([γGlu-γGlu-C20 diacid])CNTATCATQRLAEFLRHSSPNFGAIPSSTNVGPETP-NH2
modifications: disulfide 2-7; N-terminus assumed
SMILES: CC[C@H](C)[C@H](NC(=O)[C@H](C)NC(=O)CNC(=O)[C@H](Cc1ccccc1)NC(=O)[C@H](CC(N)=O)NC(=O)[C@@H]1CCCN1C(=O)[C@H](CO)NC(=O)[C@H](CO)NC(=O)[C@H](Cc1c[nH]cn1)NC(=O)[C@H](CCCNC(=N)N)NC(=O)[C@H](CC(C)C)NC(=O)[C@H](Cc1ccccc1)NC(=O)[C@H](CCC(=O)O)NC(=O)[C@H](C)NC(=O)[C@H](CC(C)C)NC(=O)[C@H](CCCNC(=N)N)NC(=O)[C@H](CCC(N)=O)NC(=O)[C@@H](NC(=O)[C@H](C)NC(=O)[C@@H]1CSSC[C@H](NC(=O)[C@@H](N)CCCCNC(=O)CC[C@H](NC(=O)CC[C@H](NC(=O)CCCCCCCCCCCCCCCCCCC(=O)O)C(=O)O)C(=O)O)C(=O)N[C@@H](CC(N)=O)C(=O)N[C@@H]([C@@H](C)O)C(=O)N[C@@H](C)C(=O)N[C@@H]([C@@H](C)O)C(=O)N1)[C@@H](C)O)C(=O)N1CCC[C@H]1C(=O)N[C@@H](CO)C(=O)N[C@@H](CO)C(=O)N[C@H](C(=O)N[C@@H](CC(N)=O)C(=O)N[C@H](C(=O)NCC(=O)N1CCC[C@H]1C(=O)N[C@@H](CCC(=O)O)C(=O)N[C@H](C(=O)N1CCC[C@H]1C(N)=O)[C@@H](C)O)C(C)C)[C@@H](C)O
Turning to B4, in assay [1], the “Ratio hCT/hAmylin funct.” value came out at 0.8 ratio and the “hCTR funct. EC50 (pM)” value came out at 102 pM. In addition, the IC50 in assay [2] came to 0.533 nM.

B5: N^ε1-[(4S)-4-carboxy-4-(19-carboxynonadecanoylamino)butanoyl]-[Glu14,Arg17,Pro21,Pro27,Pro34,Pro37]-h-amylin (peptide)
peptide: K([γGlu-C20 diacid])CNTATCATQRLAEFLRHSSPNFGAIPSSTNVGPNTP-NH2
modifications: disulfide 2-7; N-terminus assumed
SMILES: CC[C@H](C)[C@H](NC(=O)[C@H](C)NC(=O)CNC(=O)[C@H](Cc1ccccc1)NC(=O)[C@H](CC(N)=O)NC(=O)[C@@H]1CCCN1C(=O)[C@H](CO)NC(=O)[C@H](CO)NC(=O)[C@H](Cc1c[nH]cn1)NC(=O)[C@H](CCCNC(=N)N)NC(=O)[C@H](CC(C)C)NC(=O)[C@H](Cc1ccccc1)NC(=O)[C@H](CCC(=O)O)NC(=O)[C@H](C)NC(=O)[C@H](CC(C)C)NC(=O)[C@H](CCCNC(=N)N)NC(=O)[C@H](CCC(N)=O)NC(=O)[C@@H](NC(=O)[C@H](C)NC(=O)[C@@H]1CSSC[C@H](NC(=O)[C@@H](N)CCCCNC(=O)CC[C@H](NC(=O)CCCCCCCCCCCCCCCCCCC(=O)O)C(=O)O)C(=O)N[C@@H](CC(N)=O)C(=O)N[C@@H]([C@@H](C)O)C(=O)N[C@@H](C)C(=O)N[C@@H]([C@@H](C)O)C(=O)N1)[C@@H](C)O)C(=O)N1CCC[C@H]1C(=O)N[C@@H](CO)C(=O)N[C@@H](CO)C(=O)N[C@H](C(=O)N[C@@H](CC(N)=O)C(=O)N[C@H](C(=O)NCC(=O)N1CCC[C@H]1C(=O)N[C@@H](CC(N)=O)C(=O)N[C@H](C(=O)N1CCC[C@H]1C(N)=O)[C@@H](C)O)C(C)C)[C@@H](C)O
On to B5, for which the “Ratio hCT/hAmylin funct.” value in assay [1] worked out at 0.9 ratio. In addition, the half-inhibitory concentration (IC50) in assay [2] is 0.214 nM.

As a reminder, the IC50 is the point on the concentration scale where inhibition reaches its midpoint.
